Substrate in this data set: O=[N+]([O-])c1ccc(O)cc1
Description: cells, lysate or membranes named. Particulars: other: PNPH; CI 95% confidence interval; pH 7.4; 37.0 °C.
Description: Briefly, liver samples were homogenised in 10 mM Tris-HCl, 250 mM sucrose (pH7.4) and centrifuged for 10 minutes at 10.000×g. Afterwards, CaCl2 to a final concentration of 8 mM was added to the supernatant, and the samples were centrifuged at 25.000×g for 30 minutes. The protein concentrations of the microsomal fraction (pellet) were determined with a commercially available kit (Bio-Rad laboratories) according to the manufacturer's instructions and bovine serum albumin was used as standard. The prepared microsomes were diluted to a final protein concentration of 4 mg/ml and stored at –80°C before analysis. All procedures were done on ice.
Briefly, microsomes were incubated together with the appropriate type of substrate and NADPH at 37°C. The resulting production of resorufin or p-nitrochetecol was measured by HPLC. For studying inhibition, steroids were additionally added to the microsomes. Inhibition studies were performed using a pool of microsomes from three male pigs. […] All steroids were dissolved in methanol. The final concentration of methanol was below 0.1% in the reaction volumes. The same amount of methanol was added to the blank incubations. For the kinetic studies, the activities were determined with substrate concentrations ranging from 0.1 to 4.0µM for EROD and MROD, and from 0.01 to 2mM for PNPH. Kinetic studies were performed under linear conditions. […]

B1: CYP2E1 (Sus scrofa) (protein)
chain: MTALGITVALLVWLVTLLLISIWKHIHSSWKLPPGPFPLPIVGNIFQLDLKNIPKSFTMLAERYGPVFTVYLGSRRIVVLHGYKAVKEVLLHYKNEFSGRGEIPTFQVHKDKGVIFNNGPTWRDTRRFSLTTLRDFGMGKQGNEQRIQREAHFLLEALRKTHGQPFDPTFLIGCAPCNVISDILFRQHFDYNDKTCLRLMSMFNENFYLLSTGWIQLYNNFSGYLRYLPGSHRKLMKNISEIKDYALERVKDHRDSLEPSCPRDFTDTLLMEMEKEKYSAEPIYTLDNIAVTVADMFFAGTETTSTTLRYGLLILMKYPEVEEKLHEEIDRVIGPNRIPAIKDRLVMPYLDAVVHEIQRFIDLIPSNLPHEATRDTDFRDYIIPKGTVVIPTLDSVLYDSQEFPEPEKFKPEHFLNENGKFKYSDHFKAFSAGKRVCVGEGLARMELFLFMAAILQHFNLKSLVDPKDIDLSPIAIGFAKIPPHYKLCVIPRSQV
With B1, the Km is listed as 0.33 (0.214–0.452) µM.
